The data set “SEC” deals with the molecule itself. The data set is described as follows: SEC.
Data set [1] deals with UbcH5BS~Ub (UbcH5B C85S covalently ester-linked to the C-terminus of ubiquitin) (UniProt P62837;P0CG48, C85S). The data set is described as follows: SPR.
For a further data set, the target named is UbcH5BS D117A~Ub (UniProt P62837;P0CG48, C85S | D117A). Put plainly: SPR.
In another data set the target is UbcH5B (UniProt P62837 1-147). Put plainly: SPR.

Results on 8 molecules are retold here after PMC3880866 (Nature structural & molecular biology, 2012).

Residue numbers refer to the chain shown, from its start. In names and notes the source's numbering stands.

B1: BIRC7 I284A (as in size exclusion chromatography and ubiquitination assays) (enzyme)
chain: MGPKDSAKCLHRGPQPSHWAAGDGPTQERCGPRSLGSPVLGLDTCRAWDHVDGQILGQLRPLTEEEEEEGAGATLSRGPAFPGMGSEELRLASFYDWPLTAEVPPELLAAAGFFHTGHQDKVRCFFCYGGLQSWKRGDDPWTEHAKWFPSCQFLLRSKGRDFVHSVQETHSQLLGSWDPWEEPEDAAPVAPSVPASGYPELPTPRREVQSESAQEPGGVSPAEAQRAWWVLEPPGARDVEAQLRRLQEERTCKVCLDRAVSIVFVPCGHLVCAECAPGLQLCPACRAPVRSRVRTFLS
Take B1: the “stoichiometry N” value in “SEC” is 2.

B2: BIRC7 R286A (as in size exclusion chromatography and ubiquitination assays) (enzyme)
chain: B1 chain with A284I, R286A
As for B2, the “stoichiometry N” value in “SEC” came to 2.

B3: BIRC7 F296H (as in size exclusion chromatography and ubiquitination assays) (enzyme)
chain: B1 chain with A284I, F296H
Consider B3, for which, in “SEC”, the “stoichiometry N” value is 2.

B4: GST-BIRC3(541–C) (domain or fragment)
chain: DLPVEEQLRRLQEERTCKVCMDKEVSIVFIPCGHLVVCKDCAPSLRKCPICRSTIKGTVRTFLS
Take B4: the affinity in data set [1], expressed as Kd, was 5 µM.

B5: MDM2(428–C)–MDMX(428–C) (complex)
chain 1: SSLPLNAIEPCVICQGRPKNGCIVHGKTGHLMACFTCAKKLKKRNKPCPVCRQPIQMIVLTYFP
chain 2: EDCQNLLKPCSLCEKRPRDGNIIHGRTGHLVTCFHCARRLKKAGASCPICKKEIQLVIKVFIA
Turning to B5, the Kd in data set [1] worked out at 130 µM.

B6: GST-BIRC7 full length (enzyme)
chain: B1 chain with A284I
With B6, the Kd with UbcH5BS D117A~Ub was 191 µM; in data set [1], 181 µM.

B7: GST-BIRC7(239–C) (domain or fragment)
chain: VEAQLRRLQEERTCKVCLDRAVSIVFVPCGHLVCAECAPGLQLCPICRAPVRSRVRTFLS
The molecule B7 returned a Kd in data set [1] of 136 µM.

B8: RNF2(1–114)–BMI1(1–109) (complex)
chain 1: MSQAVQTNGTQPLSKTWELSLYELQRTPQEAITDGLEIVVSPRSLHSELMCPICLDMLKNTMTTKECLHRFCADCIITALRSGNKECPTCRKKLVSKRSLRPDPNFDALISKIY
chain 2: MHRTTRIKITELNPHLMCVLCGGYFIDATTIIECLHSFCKTCIVRYLETSKYCPICDVQVHKTRPLLNIRSDKTLQDIVYKLVPGLFKNEMKRRRDFYAAHPSADAANG
In the data set with UbcH5B, B8 gave a Kd of 91 µM.
